Assay [1] concerns the target T1, GPRP-A80-I60.
T1 chain: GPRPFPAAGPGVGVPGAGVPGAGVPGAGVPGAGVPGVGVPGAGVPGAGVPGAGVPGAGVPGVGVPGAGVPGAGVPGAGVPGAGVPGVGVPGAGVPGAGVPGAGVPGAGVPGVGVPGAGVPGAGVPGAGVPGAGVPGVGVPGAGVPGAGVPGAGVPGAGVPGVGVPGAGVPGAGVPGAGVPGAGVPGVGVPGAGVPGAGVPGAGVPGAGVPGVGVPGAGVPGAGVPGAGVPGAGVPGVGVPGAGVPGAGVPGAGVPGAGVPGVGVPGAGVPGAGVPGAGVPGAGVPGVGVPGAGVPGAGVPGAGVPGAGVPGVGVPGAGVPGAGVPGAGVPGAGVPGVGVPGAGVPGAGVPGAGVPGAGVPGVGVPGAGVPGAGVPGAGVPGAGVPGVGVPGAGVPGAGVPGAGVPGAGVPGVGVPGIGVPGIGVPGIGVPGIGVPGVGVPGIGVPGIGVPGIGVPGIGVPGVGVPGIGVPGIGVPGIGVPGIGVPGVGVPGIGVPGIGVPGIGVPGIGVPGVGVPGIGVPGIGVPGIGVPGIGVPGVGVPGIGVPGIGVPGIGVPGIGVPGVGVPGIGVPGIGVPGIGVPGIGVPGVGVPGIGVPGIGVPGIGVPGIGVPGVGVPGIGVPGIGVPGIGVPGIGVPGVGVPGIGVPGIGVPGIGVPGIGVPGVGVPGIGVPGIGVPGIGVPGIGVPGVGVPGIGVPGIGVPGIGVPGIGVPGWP
Nature of the assay: plate-based fluorescence binding assay.

The target of assay [2] is T2, GPRP-P40-I60.
T2 chain: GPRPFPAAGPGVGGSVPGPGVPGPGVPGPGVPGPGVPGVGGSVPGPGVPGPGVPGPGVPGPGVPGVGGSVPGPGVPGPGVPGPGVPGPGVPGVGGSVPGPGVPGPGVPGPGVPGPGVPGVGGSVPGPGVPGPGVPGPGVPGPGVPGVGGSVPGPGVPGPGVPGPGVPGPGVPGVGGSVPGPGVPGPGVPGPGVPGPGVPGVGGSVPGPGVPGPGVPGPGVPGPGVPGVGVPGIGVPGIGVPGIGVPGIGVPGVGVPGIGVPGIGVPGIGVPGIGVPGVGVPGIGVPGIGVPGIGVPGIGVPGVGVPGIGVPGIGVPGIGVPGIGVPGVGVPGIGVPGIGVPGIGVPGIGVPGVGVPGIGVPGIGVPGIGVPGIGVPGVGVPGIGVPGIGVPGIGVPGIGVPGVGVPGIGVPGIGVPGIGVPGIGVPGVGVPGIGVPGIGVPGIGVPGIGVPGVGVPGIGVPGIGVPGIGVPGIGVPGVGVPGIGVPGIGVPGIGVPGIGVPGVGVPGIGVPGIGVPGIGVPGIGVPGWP
In words: plate-based fluorescence binding assay.

B1: GPSP-P40-I60-C labelled with Alexa Fluor 488 or Alexa Fluor 546 (designed binder)
chain: GPSPFPAAGPGVGGSVPGPGVPGPGVPGPGVPGPGVPGVGGSVPGPGVPGPGVPGPGVPGPGVPGVGGSVPGPGVPGPGVPGPGVPGPGVPGVGGSVPGPGVPGPGVPGPGVPGPGVPGVGGSVPGPGVPGPGVPGPGVPGPGVPGVGGSVPGPGVPGPGVPGPGVPGPGVPGVGGSVPGPGVPGPGVPGPGVPGPGVPGVGGSVPGPGVPGPGVPGPGVPGPGVPGVGVPGIGVPGIGVPGIGVPGIGVPGVGVPGIGVPGIGVPGIGVPGIGVPGVGVPGIGVPGIGVPGIGVPGIGVPGVGVPGIGVPGIGVPGIGVPGIGVPGVGVPGIGVPGIGVPGIGVPGIGVPGVGVPGIGVPGIGVPGIGVPGIGVPGVGVPGIGVPGIGVPGIGVPGIGVPGVGVPGIGVPGIGVPGIGVPGIGVPGVGVPGIGVPGIGVPGIGVPGIGVPGVGVPGIGVPGIGVPGIGVPGIGVPGVGVPGIGVPGIGVPGIGVPGIGVPGVGVPGIGVPGIGVPGIGVPGIGVPGWPGGC
modifications: Alexa Fluor 488 or Alexa Fluor 546 on the C-terminal cysteine (sulfhydryl-maleimide)
With B1, the binding result in assay [1] and in assay [2] was “binds” throughout.

These data come from publication PMC3925836 (Advanced healthcare materials, 2013).
